Two molecules from PMC11957191, “The PH domain in the ArfGAP ASAP1 drives catalytic activation through an unprecedented allosteric mechanism” (Research Square, 2025) can be followed below.

In assay [1] the target is T1, ZA domain of ASAP1 (Arf GAP and ankyrin repeat domains), [431–724]ASAP1 (UniProt Q9QWY8 431-724).
T1 construct: Isotopically labelled for the PRE experiment; also called ΔPHZA; isolated ZA domain
T1 sequence (looked up): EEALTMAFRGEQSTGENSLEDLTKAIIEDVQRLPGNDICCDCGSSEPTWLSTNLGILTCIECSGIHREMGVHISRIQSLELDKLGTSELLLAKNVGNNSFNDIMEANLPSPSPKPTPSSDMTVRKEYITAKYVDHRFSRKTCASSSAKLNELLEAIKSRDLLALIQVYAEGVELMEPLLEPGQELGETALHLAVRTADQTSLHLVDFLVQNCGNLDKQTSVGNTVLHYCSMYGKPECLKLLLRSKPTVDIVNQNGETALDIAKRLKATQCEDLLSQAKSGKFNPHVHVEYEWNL
The assay is described as follows: NMR intermolecular paramagnetic relaxation enhancement (PRE); Cys159-MTSL myrArf1 with a non-hydrolysable GTP analog on nanodiscs, alone or in complex with wt PH (100 μM), and 100 μM isotopically labeled isolated ZA domain. The settings on record: both partners purified.

The target of assay [2] is T2, myristoylated human Arf1 (myrArf1), GTP-bound form at a membrane surface (human, UniProt P84077 1-181, N-myristoylated). Nature of the assay: cell-based or functional assay.
T2 sequence (P84077 whole entry, the tested form may be a part): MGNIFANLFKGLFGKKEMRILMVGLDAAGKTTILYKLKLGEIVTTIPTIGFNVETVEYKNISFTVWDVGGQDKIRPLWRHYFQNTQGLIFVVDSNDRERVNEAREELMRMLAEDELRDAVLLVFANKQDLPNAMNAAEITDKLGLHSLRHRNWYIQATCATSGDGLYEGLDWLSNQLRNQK
Assay [3] addresses T2, myristoylated human Arf1 (myrArf1), …. Nature of the assay: other fluorescence titration + other: inhibition of GAP activity; PH domain titrated; (i) rate of mant-GTP dissociation from myrArf1 on LUVs with 5 mol% PI(4,5)P2, followed by FRET from Arf tryptophan to mant-GTP, excess GTP 160 μM; (ii) IC50 of PH domain for GAP activity of 1 nM wt PZA on myrArf1·GTP below the Km; both served as proxies for the affinity. As to conditions: both partners purified.

B1: Cys159-MTSL tagged myrArf1 (natural protein)
chain: not shown
modifications: N-myristoylated; MTSL nitroxide spin label on the native Cys159
notes: also called Arf (in the ZA PRE experiment); source: E. coli, co-expressed with yeast NMT, purified; spin-labelled with MTSL
By Kd is commonly meant the constant that tells how readily two partners part at equilibrium. Consider B1, for which the Kd in assay [1] fell in the range of 100 to 1000 µM.

B2: ΔN14 ASAP1 PH domain, [339–451]ASAP1 (domain or fragment, UniProt Q9QWY8 339-451, looked up)
chain: GSEKKGFLLKKSDGIRKVWQRRKCAVKNGILTISHATSNRQPAKLNLLTCQVKPNAEDKKSFDLISHNRTYHFQAEDEQDYIAWISVLTNSKEEALTMAFRGEQSTGENSLED
notes: ASAP1 residues 339-451: PH domain without residues 325-338 (the first 14 residues of the wt PH construct); also called ΔN14PH; source: E. coli BL21 Star (DE3) (pET3a) or BL21 (DE3) (pET21), purified (HiTrap SP HP, SEC)
For B2, the “'in trans' stimulation of GTP hydrolysis by ZA on myrArf1 (LUVs), relative to wt PH” value in assay [2] is 0.01 fold of wt PH. Also, the “affinity relative to wt PH” value in assay [3] was ~0.5 fold of wt PH.
